Laboratory results from patent US20230416352A1 (JIANGSU HENGRUI PHARMACEUTICALS, published 2023).
Where a chain is given by its changes, count along the chain named.

T1: human CTGF (antigen of the Biacore assays) (human, UniProt P29279 27-349, limits assumed)
T1 construct: also called human CTGF protein
T1 sequence: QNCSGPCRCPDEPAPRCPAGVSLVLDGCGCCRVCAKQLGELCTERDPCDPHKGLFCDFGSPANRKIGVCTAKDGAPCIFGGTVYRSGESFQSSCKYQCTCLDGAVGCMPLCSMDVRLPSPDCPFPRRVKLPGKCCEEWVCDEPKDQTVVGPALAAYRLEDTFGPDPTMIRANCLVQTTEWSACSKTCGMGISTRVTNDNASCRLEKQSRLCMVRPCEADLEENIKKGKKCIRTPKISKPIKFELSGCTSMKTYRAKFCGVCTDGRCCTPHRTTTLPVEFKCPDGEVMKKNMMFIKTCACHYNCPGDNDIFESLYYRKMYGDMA

B1: Hu164-67wl (antibody, human IgG1, lambda)
heavy: not shown
light: ETVVTQEPSLTVSPGGTVTLTCRSSIGAVTTSNYANWVQQKPGQAFRGLIGGTSNRAPWTPARFSGSLLGGKAALTLSGVQPEDEAEYYCALWYSTHYVFGGGTKLTVLGQPKANPTVTLFPPSSEELQANKATLVCLISDFYPGAVTVAWKADGSPVKAGVETTKPSKQSNNKYAASSYLSLTPEQWKSHRSYSCQVTHEGSTVEKTVAPTEC
notes: humanized from mab164, Hu164-VH6/VL7; IgG1/lambda
B2: Hu164-67yl (antibody, human IgG1, lambda)
heavy: EVTLKESGPVLVKPTETLTLTCTVSGFSLSTFGVHWIRQPPGKGLEWLGVIWRRGGTDYNAAFMSRLTISKDTSKSQVVFTMTNMDPVDTATYYCARDGGFDYWGQGTTVTVSSASTKGPSVFPLAPSSKSTSGGTAALGCLVKDYFPEPVTVSWNSGALTSGVHTFPAVLQSSGLYSLSSVVTVPSSSLGTQTYICNVNHKPSNTKVDKKVEPKSCDKTHTCPPCPAPELLGGPSVFLFPPKPKDTLYITREPEVTCVVVDVSHEDPEVKFNWYVDGVEVHNAKTKPREEQYNSTYRVVSVLTVLHQDWLNGKEYKCKVSNKALPAPIEKTISKAKGQPREPQVYTLPPSRDELTKNQVSLTCLVKGFYPSDIAVEWESNGQPENNYKTTPPVLDSDGSFFLYSKLTVDKSRWQQGNVFSCSVMHEALHNHYTQKSLSLSPGK
light: B1 light
notes: humanized from mab164, Hu164-VH6/VL7
B3: Hu147-22wk (antibody, human IgG1, kappa, V domains shown)
VH: EVQLVESGGGLVQPGGSLRLSCAASGFTFNTYAMNWVRQAPGKGLEWVARIRTKSNNYATYYADSVKDRFTISRDDSKNSLYLQMNSLKTEDTAVYYCVETGFAYWDQGTLVTVSS
VL: EIVLTQSPATLSLSPGERATLSCSASSSVSYMHWFQQKPGQSPKLLIYSTSNLASGIPARFSGSGSGTDYTLTISSLEPEDFAVYYCQQRSSYPLTFGQGTKLEIKR
notes: humanized from mab147, Hu147-VH2/VL2; IgG1/kappa
B4: Hu147-24wk (antibody, human IgG1, kappa, V domains shown)
VH: B3 VH
VL: DIQMTQSPSSLSASVGDRVTITCSASSSVSYMHWFQQKPGKSPKLLIYSTSNLASGVPSRFSGSGSGTDYTLTISSLQPEDFATYYCQQRSSYPLTFGQGTKLEIKR
notes: humanized from mab147, Hu147-VH2/VL4; IgG1/kappa
B5: Hu147-12wk (antibody, human IgG1, kappa, V domains shown)
VH: B3 VH with N30S, A49G
VL: B3 VL
notes: humanized from mab147, Hu147-VH1/VL2; IgG1/kappa
B6: Hu147-31wk (antibody, human IgG1, kappa, V domains shown)
VH: B3 VH with T28S, K78E, N79S
VL: B3 VL with K44R
notes: humanized from mab147, Hu147-VH3/VL1; IgG1/kappa
B7: Hu147-21wk (antibody, human IgG1, kappa, V domains shown)
VH: B3 VH
VL: B3 VL with K44R
notes: humanized from mab147, Hu147-VH2/VL1; IgG1/kappa
B8: Hu147-15wk (antibody, human IgG1, kappa, V domains shown)
VH: B3 VH with N30S, A49G
VL: B4 VL with M4L, L46W
notes: humanized from mab147, Hu147-VH1/VL5; IgG1/kappa
B9: Hu147-32wk (antibody, human IgG1, kappa, V domains shown)
VH: B3 VH with T28S, K78E, N79S
VL: B3 VL
notes: humanized from mab147, Hu147-VH3/VL2; IgG1/kappa
B10: Hu147-34wk (antibody, human IgG1, kappa, V domains shown)
VH: B3 VH with T28S, K78E, N79S
VL: B4 VL
notes: humanized from mab147, Hu147-VH3/VL4; IgG1/kappa
B11: Hu147-23wk (antibody, human IgG1, kappa, V domains shown)
VH: B3 VH
VL: B3 VL with L46W, I57V
notes: humanized from mab147, Hu147-VH2/VL3; IgG1/kappa
B12: Hu147-33wk (antibody, human IgG1, kappa, V domains shown)
VH: B3 VH with T28S, K78E, N79S
VL: B3 VL with L46W, I57V
notes: humanized from mab147, Hu147-VH3/VL3; IgG1/kappa
B13: Hu147-13wk (antibody, human IgG1, kappa, V domains shown)
VH: B3 VH with N30S, A49G
VL: B3 VL with L46W, I57V
notes: humanized from mab147, Hu147-VH1/VL3; IgG1/kappa
B14: Hu147-14wk (antibody, human IgG1, kappa, V domains shown)
VH: B3 VH with N30S, A49G
VL: B4 VL
notes: humanized from mab147, Hu147-VH1/VL4; IgG1/kappa
B15: Hu147-11wk (antibody, human IgG1, kappa, V domains shown)
VH: B3 VH with N30S, A49G
VL: B3 VL with K44R
notes: humanized from mab147, Hu147-VH1/VL1
B16: CTGF antibody mAb1 (antibody, V domains shown)
VH: EGQLVQSGGGLVHPGGSLRLSCAGSGFTFSSYGMHWVRQAPGKGLEWVSGIGTGGGTYSTDSVKGRFTISRDNAKNSLYLQMNSLRAEDMAVYYCARGDYYGSGSFFDCWGQGTLVTVSS
VL: DIQMTQSPSSLSASVGDRVTITCRASQGISSWLAWYQQKPEKAPKSLIYAASSLQSGVPSRFSGSGSGTDFTLTISSLQPEDFATYYCQQYNSYPPTFGQGTKLEIKR
notes: positive control, from CN1829740B; also called pamrevlumab; FG-3019

Target: T1, human CTGF (antigen of the Biacore …)
Experiment: SPR (Biacore T200), human CTGF on CM5 chip, antibody 150 ug/ml then 50 nM TGF-β1 as competitor
Method: The antigen human CTGF was firstly fixed onto a CM5 biosensor chip (Cat. #BR-1005-30, GE) by amino coupling at a level of 1500 RU. Then high-concentration CTGF antibody (150 μg/ml) was allowed to flow over the surface of the chip for 150 s, and 50 nM TGF-β1 protein was injected for 120 s. The reaction signals were detected in real time using a Biacore T200 instrument to obtain an association and dissociation curve. After dissociation was complete in each test cycle, the biosensor chip was washed thoroughly and regenerated with a regeneration buffer.
The data obtained from the experiment were statistically analyzed using GE Biacore T200 Evaluation version 3.0 software.
Blocking efficiency=[1−(sample response value/blank control response value)]×100%.

Binder	Percent function blocking (%)
B1	55.5
B2	53.9
B3	52.3
B4	52.8
B5	51.6
B6	55
B7	51.6
B8	52.3
B9	55.2
B10	56.2
B11	54.6
B12	57.3
B13	53.3
B14	50.9
B15	50.8
B16	41.3
